In article PMC6586535 (Leukemia & lymphoma, 2018):

Target: T1, aryl hydrocarbon receptor (human (endogenous in HL-60), UniProt P35869 11-848)
T1 sequence (looked up): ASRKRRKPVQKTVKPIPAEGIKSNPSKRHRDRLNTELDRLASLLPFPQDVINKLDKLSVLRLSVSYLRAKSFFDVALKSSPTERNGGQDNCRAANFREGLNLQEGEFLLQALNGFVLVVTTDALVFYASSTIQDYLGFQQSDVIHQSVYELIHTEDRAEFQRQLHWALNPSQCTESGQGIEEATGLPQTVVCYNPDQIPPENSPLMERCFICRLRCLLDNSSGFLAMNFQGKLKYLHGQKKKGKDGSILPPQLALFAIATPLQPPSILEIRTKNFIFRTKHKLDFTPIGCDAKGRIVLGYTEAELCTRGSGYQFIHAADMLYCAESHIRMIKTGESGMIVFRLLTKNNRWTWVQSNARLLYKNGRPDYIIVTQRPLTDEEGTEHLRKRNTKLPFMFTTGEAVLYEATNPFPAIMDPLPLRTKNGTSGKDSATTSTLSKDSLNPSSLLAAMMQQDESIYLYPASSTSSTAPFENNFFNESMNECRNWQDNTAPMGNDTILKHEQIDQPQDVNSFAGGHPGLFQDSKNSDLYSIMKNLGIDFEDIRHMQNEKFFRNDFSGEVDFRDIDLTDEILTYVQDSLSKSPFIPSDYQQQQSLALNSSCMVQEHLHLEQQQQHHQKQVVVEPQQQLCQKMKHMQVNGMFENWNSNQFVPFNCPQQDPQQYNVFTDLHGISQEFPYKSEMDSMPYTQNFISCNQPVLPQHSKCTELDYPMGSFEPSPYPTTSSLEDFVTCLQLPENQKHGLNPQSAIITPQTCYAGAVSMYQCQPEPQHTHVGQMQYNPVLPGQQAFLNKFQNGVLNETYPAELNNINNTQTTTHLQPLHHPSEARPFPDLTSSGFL
Test: FRET or BRET

B1: Cbl-b (natural protein, human (endogenous in HL-60), UniProt Q13191 1-982, looked up)
chain: MANSMNGRNPGGRGGNPRKGRILGIIDAIQDAVGPPKQAAADRRTVEKTWKLMDKVVRLCQNPKLQLKNSPPYILDILPDTYQHLRLILSKYDDNQKLAQLSENEYFKIYIDSLMKKSKRAIRLFKEGKERMYEEQSQDRRNLTKLSLIFSHMLAEIKAIFPNGQFQGDNFRITKADAAEFWRKFFGDKTIVPWKVFRQCLHEVHQISSGLEAMALKSTIDLTCNDYISVFEFDIFTRLFQPWGSILRNWNFLAVTHPGYMAFLTYDEVKARLQKYSTKPGSYIFRLSCTRLGQWAIGYVTGDGNILQTIPHNKPLFQALIDGSREGFYLYPDGRSYNPDLTGLCEPTPHDHIKVTQEQYELYCEMGSTFQLCKICAENDKDVKIEPCGHLMCTSCLTAWQESDGQGCPFCRCEIKGTEPIIVDPFDPRDEGSRCCSIIDPFGMPMLDLDDDDDREESLMMNRLANVRKCTDRQNSPVTSPGSSPLAQRRKPQPDPLQIPHLSLPPVPPRLDLIQKGIVRSPCGSPTGSPKSSPCMVRKQDKPLPAPPPPLRDPPPPPPERPPPIPPDNRLSRHIHHVESVPSRDPPMPLEAWCPRDVFGTNQLVGCRLLGEGSPKPGITASSNVNGRHSRVGSDPVLMRKHRRHDLPLEGAKVFSNGHLGSEEYDVPPRLSPPPPVTTLLPSIKCTGPLANSLSEKTRDPVEEDDDEYKIPSSHPVSLNSQPSHCHNVKPPVRSCDNGHCMLNGTHGPSSEKKSNIPDLSIYLKGDVFDSASDPVPLPPARPPTRDNPKHGSSLNRTPSDYDLLIPPLGEDAFDALPPSLPPPPPPARHSLIEHSKPPGSSSRPSSGQDLFLLPSDPFVDLASGQVPLPPARRLPGENVKTNRTSQDYDQLPSCSDGSQAPARPPKPRPRRTAPEIHHRKPHGPEAALENVDAKIAKLMGEGYAFEEVKRALEIAQNNVEVARSILREFAFPPPVSPRLNL
- fold weaker FRET signal than the RARα/RXRα interaction: ~4 fold
